This note sets out measurements from US20230131338A1.

The target of experiment [1] is human FXI (zymogen; Factor XI protein, human plasma, Enzyme Research Laboratories cat. HFXI 1111) (human) (UniProt P03951). Kind of experiment: SPR (Biacore 8K), mAb captured via anti-human Fc, plasma-derived hFXI injected, 25°C. (Surface plasmon resonance follows binding to a sensor surface in real time, without labels.)
For experiment [2] the target is unchanged. Briefly: SPR (Biacore 8K), mAb captured via anti-human Fc, plasma-derived hFXI injected, 37°C.
Experiment [3] concerns the target human FXIa (activated; Factor XIa protein, human plasma, Enzyme Research Laboratories cat. HFXIa 1111a) (human) (UniProt P03951). Briefly: SPR (Biacore 8K), mAb captured via anti-human Fc, plasma-derived hFXIa injected, 25°C.
Experiment [4] shares this target. Kind of experiment: SPR (Biacore 8K), mAb captured via anti-human Fc, plasma-derived hFXIa injected, 37°C.

For “Isotype control mAb [REGN1945] (antibody)”, the 25 nM Ag Bound (RU) in experiment [1] was 1.3 RU; in experiment [2], 3.2 RU; in experiment [3] it was -1.4 RU; in experiment [4], 0.3 RU.
